Assay results published in patent publication US20050245438A1 (SALK INSTITUTE FOR BIOLOGICAL STUDIES, published 2005).
Numbered stars: 1 amine (or outer) side, 2 acyl side, 3 side chain; on linkers, the order of the positions; unused ones are H or OH. Bridge positions count the residues as written; N and C are the ends. Square brackets hold non-standard residues; d marks the D form. Ends that are not written are not given here. * marks the point of attachment. (2S,3R)βMe2Nal = L-threo-(2S,3R)-β-methyl-2-naphthylalanine, (2S,3R)-2-amino-3-(naphthalen-2-yl)butanoic acid, C[C@H](c1ccc2ccccc2c1)[C@H](N[*:1])C(=O)[*:2]; threo‑(2S,3R)CβMe‑2Nal = threo-(2S,3R)-β-methyl-2-naphthylalanine (L-threo), C[C@H](c1ccc2ccccc2c1)[C@H](N[*:1])C(=O)[*:2]; d2Nal(3S-Me) = C[C@@H](c1ccc2ccccc2c1)[C@@H](N)C(=O)O; Phe(4-CH2NH2) = NCc1ccc(C[C@H](N)C(=O)O)cc1; Tyr(127I) = tyrosine iodinated with ^127I; Phe(4-NH2) = Nc1ccc(C[C@H](N)C(=O)O)cc1; 2Nal = N[C@@H](Cc1ccc2ccccc2c1)C(=O)O; Carbamoyl = NC(=O)*

B1: (cyclo)H-Tyr-Cys-Phe-4Aph-D-Trp-Lys-Thr-Phe-Cys-OH (peptide)
peptide: H-YCF[Phe(4-NH2)][dW]KTFC-OH
modifications: disulfide 2-9
notes: synthetic cyclic nonapeptide; also called Peptide No. 7
B2: (cyclo)H-D-Cys-Phe-Tyr-threo-(2S,3R)C^βMe-2Nal-Lys-Thr-Phe-Cys-OH (peptide)
peptide: H-[dC]FY[(2S,3R)βMe2Nal]KTFC-OH
modifications: disulfide 1-8
SMILES: C[C@H](c1ccc2ccccc2c1)[C@@H]1NC(=O)[C@H](Cc2ccc(O)cc2)NC(=O)[C@H](Cc2ccccc2)NC(=O)[C@H](N)CSSC[C@@H](C(=O)O)NC(=O)[C@H](Cc2ccccc2)NC(=O)[C@H]([C@@H](C)O)NC(=O)[C@H](CCCCN)NC1=O
notes: also called Peptide No. 16A; Peptide 16A
B3: des-AA^1,2,4,5,12,13[4Aph^7]-SRIF, (cyclo)H-Cys-Phe-4Aph-Trp-Lys-Thr-Phe-Cys-OH (peptide)
peptide: H-CF[Phe(4-NH2)]WKTFC-OH
modifications: disulfide 1-8
notes: synthetic cyclic octapeptide, free N-terminus and free acid C-terminus; also called Peptide No. 1
B4: (cyclo)Cbm-Cys-Phe-4Aph-D-Trp-Lys-Thr-Tyr-Cys-OH (peptide)
peptide: Carbamoyl-CF[Phe(4-NH2)][dW]KTYC-OH
modifications: disulfide 1-8
notes: synthetic cyclic octapeptide; also called Peptide No. 10A
B5: (cyclo)H-Cys-Phe-4Aph-Trp-Lys-Thr-Tyr-Cys-OH (peptide)
peptide: H-CF[Phe(4-NH2)]WKTYC-OH
modifications: disulfide 1-8
notes: synthetic cyclic octapeptide; also called Peptide 9; Peptide No. 9
B6: (cyclo)Cbm-Cys-Phe-4Aph-Trp-Lys-Thr-Tyr-Cys-OH (peptide)
peptide: Carbamoyl-CF[Phe(4-NH2)]WKTYC-OH
modifications: disulfide 1-8
notes: synthetic cyclic octapeptide; also called Peptide No. 10
B7: (cyclo)H-Cys-Phe-4Aph-D-Trp-Lys-Thr-Phe-Cys-OH (peptide)
peptide: H-CF[Phe(4-NH2)][dW]KTFC-OH
modifications: disulfide 1-8
notes: synthetic cyclic octapeptide; also called Peptide No. 2
B8: (cyclo)Cbm-Tyr-Cys-Phe-Amp-Trp-Lys-Thr-Phe-Cys-OH (peptide)
peptide: Carbamoyl-YCF[Phe(4-CH2NH2)]WKTFC-OH
modifications: disulfide 2-9
notes: synthetic cyclic nonapeptide; also called Peptide No. 15A
B9: (cyclo)H-Tyr-Cys-Phe-4Aph-Trp-Lys-Thr-Phe-Cys-OH (peptide)
peptide: H-YCF[Phe(4-NH2)]WKTFC-OH
modifications: disulfide 2-9
notes: synthetic cyclic nonapeptide; also called Peptide No. 6
B10: (cyclo)Cbm-Tyr-Cys-Phe-Ala-Trp-Lys-Thr-Phe-Cys-OH (peptide)
peptide: Carbamoyl-YCFAWKTFC-OH
modifications: disulfide 2-9
notes: synthetic cyclic nonapeptide; also called Peptide No. 13B
B11: (cyclo)H-Cys-Phe-4Aph-2Nal-Lys-Thr-Phe-Cys-OH (peptide)
peptide: H-CF[Phe(4-NH2)][2Nal]KTFC-OH
modifications: disulfide 1-8
SMILES: C[C@@H](O)[C@@H]1NC(=O)[C@H](CCCCN)NC(=O)[C@H](Cc2ccc3ccccc3c2)NC(=O)[C@H](Cc2ccc(N)cc2)NC(=O)[C@H](Cc2ccccc2)NC(=O)[C@@H](N)CSSC[C@@H](C(=O)O)NC(=O)[C@H](Cc2ccccc2)NC1=O
notes: synthetic cyclic octapeptide; also called Peptide 5; Peptide No. 5
B12: (cyclo)Cbm-Tyr-Cys-Phe-4Aph-Trp-Lys-Thr-Phe-Cys-OH (peptide)
peptide: Carbamoyl-YCF[Phe(4-NH2)]WKTFC-OH
modifications: disulfide 2-9
notes: synthetic cyclic nonapeptide; also called Peptide No. 8
B13: (cyclo)Cbm-Cys-Phe-4Aph-D-Trp-Lys-Thr-Phe-Cys-OH (peptide)
peptide: Carbamoyl-CF[Phe(4-NH2)][dW]KTFC-OH
modifications: disulfide 1-8
SMILES: C[C@@H](O)[C@@H]1NC(=O)[C@H](CCCCN)NC(=O)[C@@H](Cc2c[nH]c3ccccc23)NC(=O)[C@H](Cc2ccc(N)cc2)NC(=O)[C@H](Cc2ccccc2)NC(=O)[C@@H](NC(N)=O)CSSC[C@@H](C(=O)O)NC(=O)[C@H](Cc2ccccc2)NC1=O
notes: synthetic cyclic octapeptide; also called Peptide No. 4
B14: (cyclo)H-Tyr-Cys-Phe-4 Amp-Trp-Lys-Thr-Phe-Cys-OH (peptide)
peptide: H-YCF[Phe(4-CH2NH2)]WKTFC-OH
modifications: disulfide 2-9
notes: here position 7 is 4Amp; also called Peptide 15; Peptide No. 15
B15: (cyclo)H-Cys-Phe-Ala-D-Trp-Lys-Thr-Phe-Cys-OH (peptide)
peptide: H-CFA[dW]KTFC-OH
modifications: disulfide 1-8
SMILES: C[C@@H]1NC(=O)[C@H](Cc2ccccc2)NC(=O)[C@@H](N)CSSC[C@@H](C(=O)O)NC(=O)[C@H](Cc2ccccc2)NC(=O)[C@H]([C@@H](C)O)NC(=O)[C@H](CCCCN)NC(=O)[C@@H](Cc2c[nH]c3ccccc23)NC1=O
notes: synthetic cyclic octapeptide; also called Peptide 11; Peptide No. 11
B16: (cyclo)Cys-Phe-Ala-D-Trp-Lys-Thr-Ala-Cys-OH (peptide)
peptide: CFA[dW]KTAC-OH
modifications: disulfide 1-8
notes: synthetic cyclic octapeptide; also called Peptide No. 12B
B17: (cyclo)H-Cys-Phe-Ala-Trp-Lys-Thr-Ala-Cys-OH (peptide)
peptide: H-CFAWKTAC-OH
modifications: disulfide 1-8
notes: synthetic cyclic octapeptide; also called Peptide 12A; Peptide No. 12A
B18: (cyclo)H-Cys-Phe-Tyr-threo-(2R,3S)C^βMe-2Nal-Lys-Thr-Phe-Cys-OH (peptide)
peptide: H-CFY[d2Nal(3S-Me)]KTFC-OH
modifications: disulfide 1-8
SMILES: C[C@@H](O)[C@@H]1NC(=O)[C@H](CCCCN)NC(=O)[C@@H]([C@@H](C)c2ccc3ccccc3c2)NC(=O)[C@H](Cc2ccc(O)cc2)NC(=O)[C@H](Cc2ccccc2)NC(=O)[C@@H](N)CSSC[C@@H](C(=O)O)NC(=O)[C@H](Cc2ccccc2)NC1=O
notes: also called Peptide No. 17
B19: (cyclo)Cbm-Cys-Phe-4Aph-Trp-Lys-Thr-Phe-Cys-OH (peptide)
peptide: Carbamoyl-CF[Phe(4-NH2)]WKTFC-OH
modifications: disulfide 1-8
notes: synthetic cyclic octapeptide; also called Peptide No. 3
B20: (cyclo)H-Tyr-Cys-Phe-Ala-Trp-Lys-Thr-Phe-Cys-OH (peptide)
peptide: H-YCFAWKTFC-OH
modifications: disulfide 2-9
notes: synthetic cyclic nonapeptide; also called Peptide No. 13
B21: (cyclo)H-Cys-Phe-Tyr-threo-(2S,3R)C^βMe-2Nal-Lys-Thr-Phe-Cys-OH (peptide)
peptide: H-CFY[threo‑(2S,3R)CβMe‑2Nal]KTFC-OH
modifications: disulfide 1-8
SMILES: C[C@H](c1ccc2ccccc2c1)[C@@H]1NC(=O)[C@H](Cc2ccc(O)cc2)NC(=O)[C@H](Cc2ccccc2)NC(=O)[C@@H](N)CSSC[C@@H](C(=O)O)NC(=O)[C@H](Cc2ccccc2)NC(=O)[C@H]([C@@H](C)O)NC(=O)[C@H](CCCCN)NC1=O
notes: later-eluting isomer, determined to incorporate the L-threo-β-Me-2Nal residue; also called Peptide No. 17A; 17a
B22: Peptide No. 13 iodinated with ^127I (peptide)
peptide: [Tyr(127I)]CFAWKTFC
modifications: disulfide 2-9
notes: also called Peptide No. 13A; the I-Tyr^2 analog
B23: (cyclo)H-Tyr-Cys-Phe-Ala-D-Trp-Lys-Thr-Phe-Cys-OH (peptide)
peptide: H-YCFA[dW]KTFC-OH
modifications: disulfide 2-9
notes: synthetic cyclic nonapeptide; also called Peptide No. 14
B24: des-AA^1,2,4,5,12,13-[Ala^7]SRIF, (cyclo)H-Cys-Phe-Ala-Trp-Lys-Thr-Phe-Cys-OH (peptide)
peptide: H-CFAWKTFC-OH
modifications: disulfide 1-8
SMILES: C[C@@H]1NC(=O)[C@H](Cc2ccccc2)NC(=O)[C@@H](N)CSSC[C@@H](C(=O)O)NC(=O)[C@H](Cc2ccccc2)NC(=O)[C@H]([C@@H](C)O)NC(=O)[C@H](CCCCN)NC(=O)[C@H](Cc2c[nH]c3ccccc23)NC1=O
notes: synthetic cyclic octapeptide; also called Peptide No. 12

What was measured:
Assay in all cases: radioligand displacement (125I-[Leu8,D-Trp22,Tyr25]SRIF-28), membrane pellet sections
[1] = target: T1, cloned human SRIF receptor SSTR4 (human, UniProt P31391 1-388)
T1 construct: whole, on cells; assayed as cryostat sections of membrane pellets of the transfected cells; also called hSSTR4
Procedure: (§1) Cells are washed twice with and scraped into ice-cold 0.05 M Tris-HCl (pH 7.4), collected by centrifugation, and homogenized using a rotor/stator/system in the same buffer. After centrifugation at 120 g for 5 min at 4° C., the supernatant is collected and centrifuged again at 48,000 g for 30 min at 4° C. The resulting pellet is resuspended in ice-cold Tris buffer, transferred into a microfuge tube, and centrifuged at 20,000 g for 15 min at 4° C. After withdrawal of the supernatant, the membrane pellet is stored at −80° C.
(§2) Receptor autoradiography is performed on 20 μm thick cryostat sections of the membrane pellets, mounted on microscope slides, and then stored at −20° C. […] Increasing concentrations of the unlabeled peptide are used ranging from 0.1-1000 nM. Unlabeled somatostatin-28 is run in parallel using the same increasing concentrations, as a control. IC₅₀ values are calculated after quantification of the data using a computer-assisted image processing system as known in this art.

[2] = target: T2, cloned human SRIF receptor SSTR2 (human, UniProt P30874 1-369)
T2 construct: whole, on cells; assayed as cryostat sections of membrane pellets of the transfected cells; also called hSSTR2
Procedure: as §1, §2

[3] = target: T3, cloned human SRIF receptor SSTR3 (human, UniProt P32745 1-418)
T3 construct: whole, on cells; assayed as cryostat sections of membrane pellets of the transfected cells; also called hSSTR3
Procedure: as §1, §2

[4] = target: T4, cloned human SRIF receptor SSTR1 (human, UniProt P30872 1-391)
T4 construct: whole, on cells; also called hSSTR1
Procedure: as §1, §2

[5] = target: T5, cloned human SRIF receptor SSTR5 (human, UniProt P35346 1-364)
T5 construct: whole, on cells; assayed as cryostat sections of membrane pellets of the transfected cells; also called hSSTR5
Procedure: as §1, §2

T4 sequence (P30872 whole entry): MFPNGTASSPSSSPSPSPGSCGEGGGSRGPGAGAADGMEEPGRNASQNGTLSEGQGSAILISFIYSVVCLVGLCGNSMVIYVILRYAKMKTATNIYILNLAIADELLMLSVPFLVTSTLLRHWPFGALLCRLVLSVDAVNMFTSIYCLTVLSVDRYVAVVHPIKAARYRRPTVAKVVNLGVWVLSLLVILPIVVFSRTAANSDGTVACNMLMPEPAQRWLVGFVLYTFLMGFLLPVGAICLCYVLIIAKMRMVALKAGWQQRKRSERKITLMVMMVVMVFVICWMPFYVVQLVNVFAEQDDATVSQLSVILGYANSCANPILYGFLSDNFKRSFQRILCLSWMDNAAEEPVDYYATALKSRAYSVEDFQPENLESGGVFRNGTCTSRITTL
T3 sequence (P32745 whole entry): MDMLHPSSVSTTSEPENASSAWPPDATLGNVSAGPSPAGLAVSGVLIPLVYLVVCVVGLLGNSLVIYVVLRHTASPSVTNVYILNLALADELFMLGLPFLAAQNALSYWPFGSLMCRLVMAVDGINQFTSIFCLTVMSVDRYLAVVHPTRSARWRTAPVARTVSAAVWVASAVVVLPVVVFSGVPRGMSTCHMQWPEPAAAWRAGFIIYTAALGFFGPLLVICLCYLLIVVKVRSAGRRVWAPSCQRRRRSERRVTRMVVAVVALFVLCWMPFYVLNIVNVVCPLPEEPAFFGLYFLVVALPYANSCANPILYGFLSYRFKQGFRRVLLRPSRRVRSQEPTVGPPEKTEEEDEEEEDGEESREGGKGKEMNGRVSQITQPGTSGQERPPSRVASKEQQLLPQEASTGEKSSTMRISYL
T2 sequence (P30874 whole entry): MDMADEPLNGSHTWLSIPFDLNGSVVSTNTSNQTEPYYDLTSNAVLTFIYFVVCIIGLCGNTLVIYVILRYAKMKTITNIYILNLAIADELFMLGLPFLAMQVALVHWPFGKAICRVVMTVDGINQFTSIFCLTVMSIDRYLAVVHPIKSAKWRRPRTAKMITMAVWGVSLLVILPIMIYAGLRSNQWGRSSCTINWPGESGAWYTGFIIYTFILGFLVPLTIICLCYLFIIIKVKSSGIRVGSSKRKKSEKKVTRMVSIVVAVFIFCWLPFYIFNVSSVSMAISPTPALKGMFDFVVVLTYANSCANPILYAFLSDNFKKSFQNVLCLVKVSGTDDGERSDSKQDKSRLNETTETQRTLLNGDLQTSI
T5 sequence (P35346 whole entry): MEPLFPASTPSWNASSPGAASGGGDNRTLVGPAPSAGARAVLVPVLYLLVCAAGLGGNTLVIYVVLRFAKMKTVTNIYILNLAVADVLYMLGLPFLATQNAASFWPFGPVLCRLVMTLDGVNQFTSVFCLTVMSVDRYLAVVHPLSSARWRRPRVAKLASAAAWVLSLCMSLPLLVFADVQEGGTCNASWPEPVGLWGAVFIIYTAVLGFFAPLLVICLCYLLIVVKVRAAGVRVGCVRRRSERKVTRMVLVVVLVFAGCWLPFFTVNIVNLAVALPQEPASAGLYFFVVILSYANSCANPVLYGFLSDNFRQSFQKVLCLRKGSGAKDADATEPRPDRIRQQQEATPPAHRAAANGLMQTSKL
T1 sequence (P31391 whole entry): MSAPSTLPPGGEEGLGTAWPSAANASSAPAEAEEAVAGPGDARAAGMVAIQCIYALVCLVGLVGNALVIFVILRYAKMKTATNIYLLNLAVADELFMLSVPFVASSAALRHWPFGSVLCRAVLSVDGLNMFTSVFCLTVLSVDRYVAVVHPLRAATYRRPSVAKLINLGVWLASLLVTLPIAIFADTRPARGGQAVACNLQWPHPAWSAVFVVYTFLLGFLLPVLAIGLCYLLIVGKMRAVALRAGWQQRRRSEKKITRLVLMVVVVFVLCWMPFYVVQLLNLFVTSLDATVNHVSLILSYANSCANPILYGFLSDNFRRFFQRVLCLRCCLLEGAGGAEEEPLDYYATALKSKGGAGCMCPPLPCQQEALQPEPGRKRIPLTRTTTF

| Binder | IC50 [1] [nM] | IC50 [2] [nM] | IC50 [3] [nM] | IC50 [4] [nM] | IC50 [5] [nM] |
| --- | --- | --- | --- | --- | --- |
| B1 | 1.2 | 56 | 263 | 517 |  |
| B2 | 3.5 | 339 | 664 |  | 668 |
| B3 | 1.2 | 347 |  | 213 |  |
| B4 | 4.3 | 227 |  |  | 110 |
| B5 | 1.1 | 170 |  | 327 | 240 |
| B6 | 3 |  |  | 757 | 557 |
| H-[dC]FY[d2Nal(3S-Me)]KTFC-OH (disulfide 1-8, also called Peptide No. 16) [(cyclo)H-D-Cys-Phe-Tyr-threo-(2R,3S)C^βMe-2Nal-Lys-Thr-Phe-Cys-OH] | 0.55 | 12 | 14 | 545 | 27 |
| B7 | 0.88 | 71 | 271 | 450 | 30 |
| B8 | 3.2 | 118 | 197 |  |  |
| B9 | 1.9 | 260 | 135 | 270 |  |
| B10 | 2.36 | 700 | 980 |  |  |
| B11 | 2.9 |  | 630 | ~1100 | 610 |
| B12 | 1.2 | 550 | 210 | 347 |  |
| B13 | 1.1 | 120 | 650 | 840 | 103 |
| B14 | 2.4 | 259 | 326 |  |  |
| B15 | 0.98 | 183 | 897 |  | 199 |
| B16 | 9.5 |  |  |  |  |
| B17 | 3.5 |  |  |  |  |
| B18 | 2.3 | 30 | 18 | 410 | 18 |
| B19 | 1.46 |  | 780 | 650 |  |
| B20 | 1.98 | 622 | 621 |  |  |
| B21 | 2.8 | 194 | 825 |  | 360 |
| B22 | 3.5 |  | 1020 |  |  |
| B23 | 1.1 | 57 | 347 | 330 |  |
| B24 | 0.84 | 807 | 750 |  | 633 |
